Key:
mPgc1b promoter = experiment: NHR-promoter luciferase screen, mPgc1b promoter; format: cell-based, mouse; settings: for Luc. act., normalized to lacZ / Normalized Luc. act., normalized to control: PGC1b promoter reporter, co-transfected HR, without or with its ligand; for Normalized Luc. act., normalized to control: relative to control; for luciferase activity normalized to lacZ activity and to a control, mPgc1b: mPgc1b promoter-luciferase, CV-1 cells, NHR +/- ligand, control = 1.00
Description: Briefly, there were co-expressed 50 ng of each NHR/NHR homodimer or NHR/RXR heterodimer with 100 ng promoter/luciferase construct and 50 ng of LacZ (as a control for transfection efficiency) in CV-1 cells using Fugene HD (Roche) as a transfection reagent (alternatively or additionally, a CMV-YFP construct can be used as a transfection control). Each of the nuclear hormone receptors that were used in these experiments was cloned into a pcDNA3.1 vector and comprised a C-terminally linked V5H6 tag.
(§1) The promoters that facilitate transcription of the indicated gene products that were tested using the protocols described herein are listed in the first row of the table. The nuclear hormone receptors and, where applicable, ligands that were assayed for their transcriptional effects on the promoters are listed in the first column of the table. The data represent the luciferase activity of each sample normalized to both the lacZ activity of that sample and to a control, e.g., no NHR or ligand, as customary in the art. As described previously, these normalizations allow the transcriptional activity of each reporter cell to be compared to other samples.
(§2) Tables 7-40 show the transcriptional effects of the hormone receptors, and, where applicable, ligands (orphan receptors are screened without ligand), on each individual promoter. […] The control data of each table are shown in their last rows.

mPOMC promoter = experiment: NHR-promoter luciferase screen, mPOMC promoter; format: cell-based, mouse; settings: for Results of assays of transcription factor (+/- ligand) with mPOMC: Table 6d, luciferase activity relative to control (control = 1.00); for Luc. act., normalized to lacZ / Normalized Luc. act., normalized to control: mPOMC promoter, HR component with or without ligand; for Normalized Luc. act., normalized to control: relative to control
Description: (§3) The use, feasibility, and reproducibility of the functional NHR-promoter screen in a 48-well format have been tested validated. Briefly, there were co-expressed 50 ng of each NHR/NHR homodimer or NHR/RXR heterodimer with 100 ng promoter/luciferase construct and 50 ng of LacZ (as a control for transfection efficiency) in CV-1 cells using Fugene HD (Roche) as a transfection reagent (alternatively or additionally, a CMV-YFP construct can be used as a transfection control). Each of the nuclear hormone receptors that were used in these experiments was cloned into a pcDNA3.1 vector and comprised a C-terminally linked V5H6 tag. Twenty-four hours after transfection, appropriate ligands were added, where applicable, (see Table 5 for various ligands and concentrations and after 48 hrs, samples were assayed for luciferase and LacZ activity. To measure for luciferase activity 15 ul of sample was added to 30 ul of luciferase buffer (20 mM tricine, 1.07 mM MgCarbonate, 2.67 mM MgSulfate, 0.1 mM Naz-EDTA, 5 mM DTT, 5 mM ATP, 0.15 mg/ml CoA, 0.5 mM Luciferin), mixed briefly, and run in a Perkin Elmer Victor 5 luminometer. Thus, the functional NHR-promoter screen was used to observe the transcriptional activity of 29 promoters from various physiological pathways including inflammation, lipid and sugar metabolism, cholesterol transport, xenobiotic metabolism, and circadian rhythm.
as §1, §2

mAdiponectin promoter = experiment: NHR-promoter luciferase screen, mAdiponectin promoter; format: cell-based, mouse; settings: for Luc. act., normalized to lacZ / Normalized Luc. act., normalized to control: Adiponectin, HR component without or with its ligand; for mAdiponectin promoter reporter activity: transcription factor +/- ligand, control = 1.00
Description: as §3, §1, §2

mDio1 promoter = experiment: NHR-promoter luciferase screen, mDio1 promoter; format: cell-based, mouse; settings: for Luc. act., normalized to lacZ / Normalized Luc. act., normalized to control: Dio1, HR component without or with its ligand; for mDio1 promoter reporter activity: transcription factor +/- ligand, control = 1.00
Description: as §3, §1, §2

hTNFa promoter = experiment: NHR-promoter luciferase screen, hTNFa promoter; format: cell-based, human; settings: for Luc. act., normalized to lacZ / Normalized Luc. act., normalized to control: TNFa promoter, HR component without or with ligand; for hTNFa promoter reporter activity: transcription factor +/- ligand, control = 1.00
Description: as §3, §1, §2

hIFNg promoter = experiment: NHR-promoter luciferase screen, hIFNg promoter; format: cell-based, human; settings: for Luc. act., normalized to lacZ / Normalized Luc. act., normalized to control: IFNg promoter, HR component without or with ligand; for hIFNg promoter reporter activity: transcription factor +/- ligand, control = 1.00
Description: as §3, §1, §2

| Molecule | Luc. act., normalized to lacZ (mPgc1b promoter) | Normalized Luc. act., normalized to control (mPgc1b promoter) | luciferase activity normalized to lacZ activity and to a control, mPgc1b (mPgc1b promoter) | Results of assays of transcription factor (+/- ligand) with mPOMC (mPOMC promoter) | Luc. act., normalized to lacZ (mPOMC promoter) | Normalized Luc. act., normalized to control (mPOMC promoter) | Luc. act., normalized to lacZ (mAdiponectin promoter) | Normalized Luc. act., normalized to control (mAdiponectin promoter) | mAdiponectin promoter reporter activity (mAdiponectin promoter) | Luc. act., normalized to lacZ (mDio1 promoter) | Normalized Luc. act., normalized to control (mDio1 promoter) | mDio1 promoter reporter activity (mDio1 promoter) | Luc. act., normalized to lacZ (hTNFa promoter) | Normalized Luc. act., normalized to control (hTNFa promoter) | hTNFa promoter reporter activity (hTNFa promoter) | Luc. act., normalized to lacZ (hIFNg promoter) | Normalized Luc. act., normalized to control (hIFNg promoter) | hIFNg promoter reporter activity (hIFNg promoter) |
| --- | --- | --- | --- | --- | --- | --- | --- | --- | --- | --- | --- | --- | --- | --- | --- | --- | --- | --- |
| TLX: Tailless (homolog of drosophila) (NR2E1), cDNA driver | 4.5 | 0.4 | 0.38 | 0.74 | 51.1 | 0.7 | 78.4 | 1.2 | 1.25 | 8.4 | 1.9 | 1.88 | 1085.1 | 1.1 | 1.10 | 28.0 | 1.8 | 1.76 |
| LXRb: Liver X Receptor β (NR1H2), cDNA driver (protein, UniProt P55055 1-460, looked up) Oxysterols receptor LXR-beta: MSSPTTSSLDTPLPGNGPPQPGAPSSSPTVKEEGPEPWPGGPDPDVPGTDEASSACSTDWVIPDPEEEPERKRKKGPAPKMLGHELCRVCGDKASGFHYNVLSCEGCKGFFRRSVVRGGARRYACRGGGTCQMDAFMRRKCQQCRLRKCKEAGMREQCVLSEEQIRKKKIRKQQQESQSQSQSPVGPQGSSSSASGPGASPGGSEAGSQGSGEGEGVQLTAAQELMIQQLVAAQLQCNKRSFSDQPKVTPWPLGADPQSRDARQQRFAHFTELAIISVQEIVDFAKQVPGFLQLGREDQIALLKASTIEIMLLETARRYNHETECITFLKDFTYSKDDFHRAGLQVEFINPIFEFSRAMRRLGLDDAEYALLIAINIFSADRPNVQEPGRVEALQQPYVEALLSYTRIKRPQDQLRFPRMLMKLVSLRTLSSVHSEQVFALRLQDKKLPPLLSEIWDVHE | 4.69 | 0.4 | 0.40 | 0.88 | 60.8 | 0.9 | 61.7 | 1.0 | 0.98 | 9.8 | 2.2 | 2.19 | 866.1 | 0.9 | 0.88 | 19.35 | 1.2 | 1.22 |
| RORg: RAR-related Orphan Receptor γ (NR1F3), cDNA driver (protein, UniProt P51449 1-518, looked up) Nuclear receptor ROR-gamma: MDRAPQRQHRASRELLAAKKTHTSQIEVIPCKICGDKSSGIHYGVITCEGCKGFFRRSQRCNAAYSCTRQQNCPIDRTSRNRCQHCRLQKCLALGMSRDAVKFGRMSKKQRDSLHAEVQKQLQQRQQQQQEPVVKTPPAGAQGADTLTYTLGLPDGQLPLGSSPDLPEASACPPGLLKASGSGPSYSNNLAKAGLNGASCHLEYSPERGKAEGRESFYSTGSQLTPDRCGLRFEEHRHPGLGELGQGPDSYGSPSFRSTPEAPYASLTEIEHLVQSVCKSYRETCQLRLEDLLRQRSNIFSREEVTGYQRKSMWEMWERCAHHLTEAIQYVVEFAKRLSGFMELCQNDQIVLLKAGAMEVVLVRMCRAYNADNRTVFFEGKYGGMELFRALGCSELISSIFDFSHSLSALHFSEDEIALYTALVLINAHRPGLQEKRKVEQLQYNLELAFHHHLCKTHRQSILAKLPPKGKLRSLCSQHVERLQIFQHLHPIVVQAAFPPLYKELFSTETESPVGLSK | 15.9 | 1.3 | 1.34 | 1.30 | 89.5 | 1.3 | 133.3 | 2.1 | 2.12 | 5.7 | 1.3 | 1.29 | 1152.0 | 1.2 | 1.17 | 17.9 | 1.1 | 1.12 |
| RORa: RAR-related Orphan Receptor α (NR1F1), cDNA driver (protein, UniProt P35398 1-523, looked up) Nuclear receptor ROR-alpha: MESAPAAPDPAASEPGSSGADAAAGSRETPLNQESARKSEPPAPVRRQSYSSTSRGISVTKKTHTSQIEIIPCKICGDKSSGIHYGVITCEGCKGFFRRSQQSNATYSCPRQKNCLIDRTSRNRCQHCRLQKCLAVGMSRDAVKFGRMSKKQRDSLYAEVQKHRMQQQQRDHQQQPGEAEPLTPTYNISANGLTELHDDLSNYIDGHTPEGSKADSAVSSFYLDIQPSPDQSGLDINGIKPEPICDYTPASGFFPYCSFTNGETSPTVSMAELEHLAQNISKSHLETCQYLREELQQITWQTFLQEEIENYQNKQREVMWQLCAIKITEAIQYVVEFAKRIDGFMELCQNDQIVLLKAGSLEVVFIRMCRAFDSQNNTVYFDGKYASPDVFKSLGCEDFISFVFEFGKSLCSMHLTEDEIALFSAFVLMSADRSWLQEKVKIEKLQQKIQLALQHVLQKNHREDGILTKLICKVSTLRALCGRHTEKLMAFKAIYPDIVRLHFPPLYKELFTSEFEPAMQIDG | 10.8 | 0.9 | 0.91 | 2.08 | 143.4 | 2.1 | 80.0 | 1.3 | 1.27 | 2.1 | 0.5 | 0.47 | 607.5 | 0.6 | 0.62 | 8.8 | 0.6 | 0.55 |
| HNF4a: Hepatocyte Nuclear Factor α (NR2A1), cDNA driver (protein, UniProt P41235 1-474, looked up) Hepatocyte nuclear factor …: MRLSKTLVDMDMADYSAALDPAYTTLEFENVQVLTMGNDTSPSEGTNLNAPNSLGVSALCAICGDRATGKHYGASSCDGCKGFFRRSVRKNHMYSCRFSRQCVVDKDKRNQCRYCRLKKCFRAGMKKEAVQNERDRISTRRSSYEDSSLPSINALLQAEVLSRQITSPVSGINGDIRAKKIASIADVCESMKEQLLVLVEWAKYIPAFCELPLDDQVALLRAHAGEHLLLGATKRSMVFKDVLLLGNDYIVPRHCPELAEMSRVSIRILDELVLPFQELQIDDNEYAYLKAIIFFDPDAKGLSDPGKIKRLRSQVQVSLEDYINDRQYDSRGRFGELLLLLPTLQSITWQMIEQIQFIKLFGMAKIDNLLQEMLLGGSPSDAPHAHHPLHPHLMQEHMGTNVIVANTMPTHLSNGQMCEWPRPRGQAATPETPQPSPPGGSGSEPYKLLPGAVATIVKPLSAIPQPTITKQEVI | 6.4 | 0.5 | 0.54 | 0.90 | 62.0 | 0.9 | 25.4 | 0.4 | 0.40 | 10.0 | 2.3 | 2.25 | 852.9 | 0.9 | 0.87 | 8.7 | 0.5 | 0.55 |
